This note sets out measurements from IntAct's records for PubMed 16282588.

First the molecules themselves.
B1: G/T mismatch-specific thymine DNA glycosylase (Mus musculus), P56581 (parent)
chain: MDAEAARSYSLEQVQALYSFPFQQMMAEVPNMAVTTGQQVPAVAPNMATVTEQQVPEDAPVQEPAPEAPKRRKRKPRAAEPQEPVEPKKPATSKKSGKSTKSKEKQEKITDAFKVKRKVDRFNGVSEAELLTKTLPDILTFNLDIVIIGINPGLMAAYKGHHYPGPGNHFWKCLFMSGLSEVQLNHMDDHTLPGKYGIGFTNMVERTTPGSKDLSSKEFREGGRILVQKLQKYQPRIAVFNGKCIYEIFSKEVFGVKVKNLEFGLQPHKIPDTETLCYVMPSSSARCAQFPRAQDKVHYYIKLKDLRDQLKGIERNADVQEVQYTFDLQLAQEDAKKMAVKEEKYDPGYEAAYGGAYGENPCNGEPCGIASNGLTAHSAEPRGEAAPSDVPNGQWMAQSFAEQIPSFNNCGTREQEEESHA

One experiment covers variants of B1. The following applies: with ncoa1_human NCOA1, Q15788.
ncoa1_human NCOA1, Q15788, sequence (Q15788 whole entry): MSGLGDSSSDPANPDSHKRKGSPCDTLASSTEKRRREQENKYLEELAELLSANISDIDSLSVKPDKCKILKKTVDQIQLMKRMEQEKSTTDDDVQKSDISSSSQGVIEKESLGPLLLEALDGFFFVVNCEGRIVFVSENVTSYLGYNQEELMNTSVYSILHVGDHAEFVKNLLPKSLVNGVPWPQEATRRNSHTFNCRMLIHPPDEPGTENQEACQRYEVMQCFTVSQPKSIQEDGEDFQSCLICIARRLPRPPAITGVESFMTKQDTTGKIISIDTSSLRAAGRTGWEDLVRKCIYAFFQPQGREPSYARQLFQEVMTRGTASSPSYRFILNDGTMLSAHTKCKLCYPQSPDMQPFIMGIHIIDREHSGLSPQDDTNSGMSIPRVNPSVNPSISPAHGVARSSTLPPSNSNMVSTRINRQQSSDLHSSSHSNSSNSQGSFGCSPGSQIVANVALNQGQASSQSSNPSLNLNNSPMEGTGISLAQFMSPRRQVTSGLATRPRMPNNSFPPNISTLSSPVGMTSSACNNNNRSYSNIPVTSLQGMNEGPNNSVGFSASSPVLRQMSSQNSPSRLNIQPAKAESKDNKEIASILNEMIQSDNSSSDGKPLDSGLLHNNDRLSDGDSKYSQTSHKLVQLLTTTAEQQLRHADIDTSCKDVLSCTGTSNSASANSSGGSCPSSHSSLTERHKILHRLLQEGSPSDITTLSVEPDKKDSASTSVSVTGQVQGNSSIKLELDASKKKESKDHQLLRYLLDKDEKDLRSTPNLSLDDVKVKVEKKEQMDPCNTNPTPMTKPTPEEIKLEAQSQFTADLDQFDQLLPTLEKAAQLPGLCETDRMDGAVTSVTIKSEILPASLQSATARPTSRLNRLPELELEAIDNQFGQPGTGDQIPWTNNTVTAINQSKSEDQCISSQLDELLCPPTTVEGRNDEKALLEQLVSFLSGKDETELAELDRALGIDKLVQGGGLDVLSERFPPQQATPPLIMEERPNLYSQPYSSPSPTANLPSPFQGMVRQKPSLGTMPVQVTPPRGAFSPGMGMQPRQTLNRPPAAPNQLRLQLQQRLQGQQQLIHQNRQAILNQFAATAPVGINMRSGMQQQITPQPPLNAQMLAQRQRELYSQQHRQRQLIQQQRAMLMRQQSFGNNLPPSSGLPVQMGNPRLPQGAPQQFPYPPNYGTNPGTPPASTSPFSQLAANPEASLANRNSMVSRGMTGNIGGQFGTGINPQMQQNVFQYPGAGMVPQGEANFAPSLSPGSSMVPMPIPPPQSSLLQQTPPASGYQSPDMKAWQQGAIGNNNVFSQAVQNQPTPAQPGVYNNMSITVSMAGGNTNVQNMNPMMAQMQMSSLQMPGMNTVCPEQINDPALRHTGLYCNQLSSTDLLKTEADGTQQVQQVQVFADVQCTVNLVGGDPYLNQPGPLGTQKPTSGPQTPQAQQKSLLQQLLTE
Turning to MDAEAARSYSLEQVQALYSFPFQQMMAEVPNMAVTTGQQVPAVAPNMATVTEQQVPEDAPVQEPAPEAPKRRKRKPRAAEPQEPVEPKKPATSKKSGKSTKSKEKQEKITDAFKVKRKVDRFNGVSEAELLTKTLPDILTFNLDIVIIGINPGLMAAYKGHHYPGPGNHFWKCLFMSGLSEVQLNHMDDHTLPGKYGIGFTNMVERTTPGSKDLSSKEFREGGRILVQKLQKYQPRIAVFNGKCIYEIFSKEVFGVKVKNLEFGLQPHKIPDTETLCYVMPSSSARCAQFPRAQDKVHYYIKLKDLRDQLKGIERNADVQEVQYTFDLQLAQEDAKKMAVKEEKADPGAEAAAGGAAGENPCNGEPCGIASNGLTAHSAEPRGEAAPSDVPNGQWMAQSFAEQIPSFNNCGTREQEEESHA [Y345A;Y349A;Y353A;Y357A], the “effect of a mutation on the interaction” value was “decreasing interaction strength”.
On the same count and under the same terms, the entry for MDAEAARSYSLEQVQALYSFPFQQMMAEVPNMAVTTGQQVPAVAPNMATVTEQQVPEDAPVQEPAPEAPKRRKRKPRAAEPQEPVEPKKPATSKKSGKSTKSKEKQEKITDAFKVKRKVDRFNGVSEAELLTKTLPDILTFNLDIVIIGINPGLMAAYKGHHYPGPGNHFWKCLFMSGLSEVQLNHMDDHTLPGKYGIGFTNMVERTTPGSKDLSSKEFREGGRILVQKLQKYQPRIAVFNGKCIYEIFSKEVFGVKVKNLEFGLQPHKIPDTETLCYVMPSSSARCAQFPRAQDKVHYYIKLKDLRDQLKGIERNADVQEVQYTFDLQLAQEDAKKMAVKEEKADPGAEAAYGGAYGENPCNGEPCGIASNGLTAHSAEPRGEAAPSDVPNGQWMAQSFAEQIPSFNNCGTREQEEESHA [Y345A;Y349A] is “decreasing interaction strength”.
MDAEAARSYSLEQVQALYSFPFQQMMAEVPNMAVTTGQQVPAVAPNMATVTEQQVPEDAPVQEPAPEAPKRRKRKPRAAEPQEPVEPKKPATSKKSGKSTKSKEKQEKITDAFKVKRKVDRFNGVSEAELLTKTLPDILTFNLDIVIIGINPGLMAAYKGHHYPGPGNHFWKCLFMSGLSEVQLNHMDDHTLPGKYGIGFTNMVERTTPGSKDLSSKEFREGGRILVQKLQKYQPRIAVFNGKCIYEIFSKEVFGVKVKNLEFGLQPHKIPDTETLCYVMPSSSARCAQFPRAQDKVHYYIKLKDLRDQLKGIERNADVQEVQYTFDLQLAQEDAKKMAVKEEKYDPGYEAAAGGAAGENPCNGEPCGIASNGLTAHSAEPRGEAAPSDVPNGQWMAQSFAEQIPSFNNCGTREQEEESHA [Y353A;Y357A]: the “effect of a mutation on the interaction” value is given as “decreasing interaction strength”.

Another experiment covers variants of B1. The following applies: with ncoa1_human NCOA1, Q15788. This is another data set of the same source.
For MDAEAARSYSLEQVQALYSFPFQQMMAEVPNMAVTTGQQVPAVAPNMATVTEQQVPEDAPVQEPAPEAPKRRKRKPRAAEPQEPVEPKKPATSKKSGKSTKSKEKQEKITDAFKVKRKVDRFNGVSEAELLTKTLPDILTFNLDIVIIGINPGLMAAYKGHHYPGPGNHFWKCLFMSGLSEVQLNHMDDHTLPGKYGIGFTNMVERTTPGSKDLSSKEFREGGRILVQKLQKYQPRIAVFNGKCIYEIFSKEVFGVKVKNLEFGLQPHKIPDTETLCYVMPSSSARCAQFPRAQDKVHYYIKLKDLRDQLKGIERNADVQEVQYTFDLQLAQEDAKKMAVKEEKFDPGFEAAYGGAYGENPCNGEPCGIASNGLTAHSAEPRGEAAPSDVPNGQWMAQSFAEQIPSFNNCGTREQEEESHA [Y345F;Y349F], the “effect of a mutation on the interaction” value is “decreasing interaction strength”.
On the same count and under the same terms, the entry for MDAEAARSYSLEQVQALYSFPFQQMMAEVPNMAVTTGQQVPAVAPNMATVTEQQVPEDAPVQEPAPEAPKRRKRKPRAAEPQEPVEPKKPATSKKSGKSTKSKEKQEKITDAFKVKRKVDRFNGVSEAELLTKTLPDILTFNLDIVIIGINPGLMAAYKGHHYPGPGNHFWKCLFMSGLSEVQLNHMDDHTLPGKYGIGFTNMVERTTPGSKDLSSKEFREGGRILVQKLQKYQPRIAVFNGKCIYEIFSKEVFGVKVKNLEFGLQPHKIPDTETLCYVMPSSSARCAQFPRAQDKVHYYIKLKDLRDQLKGIERNADVQEVQYTFDLQLAQEDAKKMAVKEEKFDPGFEAAFGGAFGENPCNGEPCGIASNGLTAHSAEPRGEAAPSDVPNGQWMAQSFAEQIPSFNNCGTREQEEESHA [Y345F;Y349F;Y353F;Y357F] is “decreasing interaction strength”; for MDAEAARSYSLEQVQALYSFPFQQMMAEVPNMAVTTGQQVPAVAPNMATVTEQQVPEDAPVQEPAPEAPKRRKRKPRAAEPQEPVEPKKPATSKKSGKSTKSKEKQEKITDAFKVKRKVDRFNGVSEAELLTKTLPDILTFNLDIVIIGINPGLMAAYKGHHYPGPGNHFWKCLFMSGLSEVQLNHMDDHTLPGKYGIGFTNMVERTTPGSKDLSSKEFREGGRILVQKLQKYQPRIAVFNGKCIYEIFSKEVFGVKVKNLEFGLQPHKIPDTETLCYVMPSSSARCAQFPRAQDKVHYYIKLKDLRDQLKGIERNADVQEVQYTFDLQLAQEDAKKMAVKEEKYDPGYEAAFGGAFGENPCNGEPCGIASNGLTAHSAEPRGEAAPSDVPNGQWMAQSFAEQIPSFNNCGTREQEEESHA [Y353F;Y357F] it is “decreasing interaction strength”.
On the same count and under the same terms, under MDAEAARSYSLEQVQALYSFPFQQMMAEVPNMAVTTGQQVPAVAPNMATVTEQQVPEDAPVQEPAPEAPKRRKRKPRAAEPQEPVEPKKPATSKKSGKSTKSKEKQEKITDAFKVKRKVDRFNGVSEAELLTKTLPDILTFNLDIVIIGIAPGLMAAYKGHHYPGPGNHFWKCLFMSGLSEVQLNHMDDHTLPGKYGIGFTNMVERTTPGSKDLSSKEFREGGRILVQKLQKYQPRIAVFNGKCIYEIFSKEVFGVKVKNLEFGLQPHKIPDTETLCYVMPSSSARCAQFPRAQDKVHYYIKLKDLRDQLKGIERNADVQEVQYTFDLQLAQEDAKKMAVKEEKYDPGYEAAYGGAYGENPCNGEPCGIASNGLTAHSAEPRGEAAPSDVPNGQWMAQSFAEQIPSFNNCGTREQEEESHA [N151A] stands “with no effect”; under MDAEAARSYSLEQVQALYSFPFQQMMAEVPNMAVTTGQQVPAVAPNMATVTEQQVPEDAPVQEPAPEAPKRRKRKPRAAEPQEPVEPKKPATSKKSGKSTKSKEKQEKITDAFKVKRKVDRFNGVSEAELLTKTLPDILTFNLAIAAIGINPGLMAAYKGHHYPGPGNHFWKCLFMSGLSEVQLNHMDDHTLPGKYGIGFTNMVERTTPGSKDLSSKEFREGGRILVQKLQKYQPRIAVFNGKCIYEIFSKEVFGVKVKNLEFGLQPHKIPDTETLCYVMPSSSARCAQFPRAQDKVHYYIKLKDLRDQLKGIERNADVQEVQYTFDLQLAQEDAKKMAVKEEKYDPGYEAAYGGAYGENPCNGEPCGIASNGLTAHSAEPRGEAAPSDVPNGQWMAQSFAEQIPSFNNCGTREQEEESHA [D144A;V146A;I147A], “with no effect”.
